US20230331872A1 (CYTOIMMUNE THERAPEUTICS, published 2023)

T1: Recombinant Human NKG2D, amino acid Phe78-Val216 (Accession #P26718) (Biolegends, #781908) (human, UniProt P26718 78-216)
T1 construct: range 78-216; Bought reagent; also called NKG2D-fusion protein; CD314
T1 sequence (looked up): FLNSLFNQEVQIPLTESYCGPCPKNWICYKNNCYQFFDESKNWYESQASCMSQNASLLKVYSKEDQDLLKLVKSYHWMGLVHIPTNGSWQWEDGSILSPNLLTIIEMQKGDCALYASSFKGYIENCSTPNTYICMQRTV


Target: T1, Recombinant Human NKG2D, amino acid …
Test: home developed BiKE detection ELISA with NKG2D-fusion protein coated plate, 72 h serum-free NK cell supernatant
Procedure: An unique ELISA assay was developed for detecting the concentration of full human Source Scfv-anti NKG2D and GPRCSD. Firstly, the Nunc MaxiSorp™ flat-bottom plate (Invitrogen™, 44-2404-21) was coated with 100 ng/well of Recombinant Human NKG2D, amino acid Phe78-Va1216 (Accession #P26718) (Biolegends, #781908) dissolved in 100 μl of DPBS (Gibco, 14190) at 4 degree overnight. After washing with 1x DPBS buffer with final 0.05% Tween 20 and blocking with 1% BSA in 1x DPBS buffer with final 0.05% Tween 20, 100 μl of samples and standard in blocking buffer were added to each well. The standard used in this assay was a human anti human NKG2D antibody, CD314 (NKG2D)-PE, human, Cat: 130-111-645, recombinant human IgG1, Miltenyi Biotec GmbH (0.25 mg/ml). For detection, a Biotinylated Goat anti-Human IgG (H+L) Cross-Adsorbed Secondary Antibody and HRP-Conjugated Streptavidin (Thermo Scientific™, N100), as well as 1-Step™ Ultra TMB-ELISA Substrate Solution, (Bio-Rad #34029). Stop buffer used was 1 M H₃PO₄.
0.5-1×10⁶ transduced NK cells (FIG. 39) were seeded and cultured in serum free media for 72 hours. Supernatant was subsequently collected, centrifuged, and immediately added to IL-15 pre-coated ELISA plate (R&D Systems S1500) and home developed BiKE detection ELISA with NKG2D-fusion protein coated plate. […] Data present here was as average concentration from four independent donors as mean±SD.

Binder | binding result
NKG2D-GPRC5D BiKE (NG2-BiKE) secreted from NK cells transduced with P62: NG2-BiKE BCMA-CAR--SIL-15-RQR8 (bispecific antibody, human IgG4 S228P, F234A L235A, N297Q, also called IL2 SP BiKE; NKG2D-GPRC5D BiKE-BCMA CAR-SIL-15-RQR8-P62) QVQLVESGGGLVKPGGSLRLSCAASGFTFSSYGMHWVRQAPGKGLEWVAFIRYDGSNKYYADSVKGRFTISRDNSKNTLYLQMNSLRAEDTAVYYCAKDRGLGDGTYFDYWGQGTTVTVSSGGGGSGGGGSGGGGSQSALTQPASVSGSPGQSITISCSGSSSNIGNNAVNWYQQLPGKAPKLLIYYDDLLPSGVSDRFSGSKSGTSAFLAISGLQSEDEADYYCAAWDDSLNGPVFGGGTKLTVLPSGQAGAAASESLFVSNHAYQVQLVQSGAEVKKPGASVKVSCKASGYSFTGYTMNWVRQAPGQGLEWMGLINPYNSDTNYAQKLQGRVTMTTDTSTSTAYMELRSLRSDDTAVYYCARVALRVALDYWGQGTLVTVSSGGGGSGGGGSGGGGSDIQMTQSPSSLSASVGDRVTITCKASQNVATHVGWYQQKPGKAPKRLIYSASYRYSGVPSRFSGSGSGTEFTLTISNLQPEDFATYYCQQYNRYPYTFGQGTKLEIKESKYGPPCPPCPAPEAAGGPSVFLFPPKPKDTLMISRTPEVTCVVVDVSQEDPEVQFNWYVDGVEVHNAKTKPREEQFQSTYRVVSVLTVLHQDWLNGKEYKCKVSNKGLPSSIEKTISKAKGQPREPQVYTLPPSQEEMTKNQVSLTCLVKGFYPSDIAVEWESNGQPENNYKTTPPVLDSDGSFFLYSRLTVDKSRWQEGNVFSCSVMHEALHNHYTQKSLSLSLGK | binds
GPRC5D-NKG2D BiKE (GN1-BiKE) secreted from NK cells transduced with P61: GN1-BiKE BCMA-CAR--SIL-15-RQR8 (bispecific antibody, human IgG4 S228P, F234A L235A, N297Q, also called IL2 SP BiKE; GPRC5D-NKG2D BiKE-BCMA CAR-SIL-15-RQR8-P61) DIQMTQSPSSLSASVGDRVTITCKASQNVATHVGWYQQKPGKAPKRLIYSASYRYSGVPSRFSGSGSGTEFTLTISNLQPEDFATYYCQQYNRYPYTFGQGTKLEIKGGGGSGGGGSGGGGSQVQLVQSGAEVKKPGASVKVSCKASGYSFTGYTMNWVRQAPGQGLEWMGLINPYNSDTNYAQKLQGRVTMTTDTSTSTAYMELRSLRSDDTAVYYCARVALRVALDYWGQGTLVTVSSPSGQAGAAASESLFVSNHAYQSALTQPASVSGSPGQSITISCSGSSSNIGNNAVNWYQQLPGKAPKLLIYYDDLLPSGVSDRFSGSKSGTSAFLAISGLQSEDEADYYCAAWDDSLNGPVFGGGTKLTVLGGGGSGGGGSGGGGSQVQLVESGGGLVKPGGSLRLSCAASGFTFSSYGMHWVRQAPGKGLEWVAFIRYDGSNKYYADSVKGRFTISRDNSKNTLYLQMNSLRAEDTAVYYCAKDRGLGDGTYFDYWGQGTTVTVSSESKYGPPCPPCPAPEAAGGPSVFLFPPKPKDTLMISRTPEVTCVVVDVSQEDPEVQFNWYVDGVEVHNAKTKPREEQFQSTYRVVSVLTVLHQDWLNGKEYKCKVSNKGLPSSIEKTISKAKGQPREPQVYTLPPSQEEMTKNQVSLTCLVKGFYPSDIAVEWESNGQPENNYKTTPPVLDSDGSFFLYSRLTVDKSRWQEGNVFSCSVMHEALHNHYTQKSLSLSLGK | binds
